In PMC5389710 (Nucleic Acids Research, 2016) one finds Kd data, which are given here for 1 molecule.

Experiment in all cases: ITC
On the technique in general: ITC needs no label: the signal is the heat of the interaction.

Test [1] has as its target Xenopus laevis core histone H3 (X. laevis, UniProt P84233 1-136).
Test [2] addresses Chicken erythrocyte H3–H4 histone dimer (chicken, UniProt P84229 1-136; P62801 1-103).
In test [3] the target is Xenopus laevis core histone H2B (X. laevis, UniProt P02281 1-126).

What is called Kd is the equilibrium constant for the complex coming apart. Read a low Kd as a tighter complex.

B1: Arabidopsis thaliana NAP1-related protein 1 (NRP1) (natural protein)
chain: MVADKSKKSKIEEKGEEENLEQIDAELVLSIEKLQEIQDDLEKINEKASDEVLEVEQKYNVIRKPVYDKRNEVIQSIPGFWMTAFLSHPALGDLLTEEDQKIFKYLNSLEVEDAKDVKSGYSITFHFTSNPFFEDAKLTKTFTFLEEGTTKITATPIKWKEGKGLPNGVNHDDKKGNKRALPEESFFTWFTDAQHKEDAGDEIHDEVADIIKEDLWSNPLTYFNNDADEEDFDGDDDGDEEGEEDDDDEEEEDGEE
As for B1, the values for the Kd in test [1], in test [2] and in test [3] were 20 µM, 0.4 µM and 9.6 µM, respectively.
